# Earlier results in publication PMC4411291.
# Target: Calmodulin (UniProt P0DP23)
substance,measurement,value
STIM2 C-terminal site (from UniProt Q9P246),Kd,1000 nM
